Data taken from the nanobody polyreactivity screen of Harvey et al. (2022).

Test: yeast display, Sf9 membrane polyspecificity reagent, FACS + sequencing; frameworks hold sequencing errors
Method in brief: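 Sorting gates, low and high (top ~1%), were placed on anti-HA fluorescence to track expression and on streptavidin fluorescence to track reagent binding. A clone's polyreactivity label is taken from the gate it came out of. The reagent was 10% biotinylated, detergent-solubilized Sf9 membrane, applied for 1 hour at 4 °C to galactose-induced yeast display cells.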

Sequence	polyreactivity (PSR sort gate)
QVQLVESGGGLVQAGGSLRLSCAASGSTFYYNAMGWYRQAPGKERELDARISRSGGSTYADSVKGRFTISRDNAKNTVYLQMNSLKPEDTAVYYCNADAYGTPEFTSYAVRYDYWGQGTQVTVSS	low polyreactivity
QVQLVESGGGSVQAGGSLRFSCADSGFTFRKNAMGWYRQAPGKERELVAAISVSGGRTYYADSVKGRFTISRDNAKNTFYLQMNSLKPEETAVYYCAARRYVLVHKDDYWGQGTQVTVSS	high polyreactivity
QDQLVESGGGLVQAGGSLRLSCAASGFIFAYNAMGWYRQGPGKESELVAGITWNGGSTYYADSVKGRFTISRDNAKNSVYLQMNRLKPEETAVYYCAARRTWGYIYRLGYGMDYWGQGTQVTVSS	high polyreactivity
QVQLVESGRGLVQAAGSLRLSCASSGSTYFGNTMVWYRQAPGKERELVATITRRGGTTYYADSVKGRFTISRDNAKNSVFLQMNSLKPEDTAVYYCAKRGPYTKYDYWGQGTQVTVSS	low polyreactivity
QVQLVESGGGLVQAGGSLRLSCAASGRTFYGYAMGWYRQAPGKERELVASISRDGSTNYADSVKGRFTISRDNAKNTVYLQMNSLKPEDTAVYYCAADWVYYRYWPYVGYDYWGQGTQVTVSS	low polyreactivity
QVQLVESGGGLVQAGGSLRLSCAASGFTFGRYARGWYRQAPGKERELVAAISRGGSSTYYADSVKGRFTISRDNAKNTVYLQMNSLKPEDTAVYYCNKVIIWARFDYWGQGTQVTVSS	high polyreactivity
QVQLVESGGGLVQAGGRLRLSCAASGSTFHYYAMGWDRQAPGKERELVAAISQSGSGTYYADSVKGLFTISRDNAKKTVYLQMNSLKPEDTAVYYCAKDITGLSRYRRDYWGQGTQVTVSS	low polyreactivity
QVQLVESGGGLVQAGGSLRLSCAASGLTFPRYAMGWYRQAPGKEREFVAGITYSGGSTYYADSVKGRFTISRDNAKNTVYLQMNSLKPEDTAVYYCAATPWSYEYYYWGQGTQVTVSS	low polyreactivity
QVQLVESGGGLVQAGGSLRLSCAASGSTFPDYAMGWYRQAPGKERELVAAISWSGGSTYYADSVKGRFTISRDNAKNTVYLQMNSLKPEDTAVYYCAAGYSPPKPYSGGYYYWGQGTQVTVSS	low polyreactivity
QVQLEESGGGLVQAGGSLRLSCAASGSTFGNYAKGWYRQAPGKERELVAAITATGGRTYYADSVKGRFTISRDNAKNTVYLQMNSVKPEDTAVYYCAAGYRTGGDSGDYWGQGTQVTVSS	high polyreactivity
QVQLVESGGGLVQAGGSLRLSCAASGFIFERYTMGWYRHAPGKERELVAAISDSGGSTYYADSVKGRFTISRDNAKNTVYLQMNSLKPEDTAVYYCAAKFRNYRPSKYYYWGQGTQVTVSS	high polyreactivity
QVQLVESGGGLVQAGGSLRLSCAASGGTFSSNDMGWYRQAPGKERELVAAISWSGSSTDYADSVKGRFTISRDNAKNTVYLQMNSLKPDDTAVYYCNTDYWEITYSGVIWPEYDYWGQCTQVTVSS	low polyreactivity
QVQLVESGGGLVQAGGSLRLSCAASGSTFPTYAMGWYRQAPGKERELVAAITRGGRTYYADSVKGRFTISRDNAKNTVYLQMNSLKPEDTAVYYCAAVYYGAAQYNYWGQGTQVTVSS	high polyreactivity
QVQLVESGGGLVQAGGSLRLSCAASGRTLDSNAMGWYRQAPGKERELVAAISSAGSTNYADSVKGRFTISRDNAKNTVYLQMNRLQPEDTAVYYCAADLIGSHDYWGQGTQVTVSS	low polyreactivity
QVQLVESGGGLVQAGGSLRLSCAASGRTFTRYAMGWYRQAPGKERELVATINSSGDRTYYADSVKGRFTISRDNAKNTVYLQMNSLKPEDTAVYYCAKRWSPYLYGYWGQGTQVTVSS	high polyreactivity
QVQLVESGGGLVQAGGSLRLSCAASGLIFRRYTMGWYGQGPGKERELVAAITSSGGNTYYADSVKGRFTISRDNAKNTVYLQMNSLKPEDTAVYYCNNPGTHNYYYWGQGTQVTVSS	high polyreactivity
QVQLVESGGGLVQAGGSLRLSCAASGSIFQHYAMGWYRQAPGKERELVAAISYDTTSTYYADSVKGLFTISRDNAKNTVYLQMNSLKPEDPAVYYCNTDPEVYGPFQYDYWGQGTQVTVSS	low polyreactivity
QVQLVESGGGLVQAGGSLRLSCAASGRIFFNYAMGWYSQAPGKERELVAAIRGGGSTYADSVKGRFTISRDNAKNTVYLQLNSLKPADTAVYYCAARYSGSPYHTRRYYYWGQGTQVTVSS	high polyreactivity
QVQLVESGGGLVQAGGSLRLSCAASGITLARNAMGWYRQAPGKERELVASITWSGGTTYYADSVKGRFTISRDNAKNTVYLQMISLKPEDTAVYYCAASAKLHYYRTYRYNYWGQGTQVSVSS	high polyreactivity
QVQLVESGGGLVQAGGSLRLSCAASGSIFGVNYMGWYRQAPGKERELVAGLSSSGGSTYYADSVKGRFTISRDNAKNTVYLQMNSLKPEDTAVYDCAATQSRYYSDDPYYYWGQGTQVTVSS	low polyreactivity
QVQLHERGDGLVQAVGSLRLSCAASGYISGYYYMGWYRQATGKERELVAGIDALGSSTNYADCVKGRFTISRDNAKNTVYLQMNSLKPEDTAVYYCAARPDGDRLFSYWGQGTQVTVSS	low polyreactivity
QVQLVESGGGLVQAGGSLLLTCAASGRIISLYAMGWYRQAPGKERELVAGISGGTIKYYADSLKGRFTISRDNAKNTVYLQMNSLKAEDTAVYYCAAKPTYRGYGYGSWGHGTQVTVSS	low polyreactivity

Sequence	polyreactivity (PSR sort gate)
QVQLVESGGGLVQAGGSLRLSCAASGSIFYYNAMGWYRQAPGKERELVAAMSWSGGSTYDADSVKGRFTISRDNAKHTVYLQMNSLKPEDTAVYYCRYYRRDEMDYWGQGTQVTVSS	high polyreactivity
QVQLVESGGGLVQAGGSLRLSCAASGFTFYLYAMGWYRQAPGKEREFVASISYRGTSTYYADSVKGRCTISRDNAKNTVYLQMNSLKPEDTAFYYCAARPSYYRTGYGYWGQGTQVTVSS	high polyreactivity
QVQLVESGGGLVQAGGSLRLSCAASGFIFKKYAMGWYRQAPGKERELVAAISGSSTRTYYADSVKGRFTISRDNAKNTVYLQMNSLKPEDTAVYYCAAYYGVGFDYWGQGTQVTVSS	high polyreactivity
QVQLVESGAGLVQAGGSLRLSCAASGSTVAGNAMGGYRQAPGTERELVAAIDSSTGSTYYADCVKGRFTISRDNAKITVYLLMNSLKPEDTAVYYCADDQVHKREYDYWGQGTQVTVSS	low polyreactivity
QVQLVESGGGLVQAGGSLRLSCAASGRIFLYYAMGWYRQAPGKERELVAAISSGGSTYYADSVKGRFTISRDNAKNTVYLQMNSLKPEDTAVYYCATPSGRWGHYGYWGQGTQVTVSS	low polyreactivity
QVQLVESGGGLVQAGGSLRLSCAASGLIFVYNDMGWYRQAPGKERELVAGITGTGGNTYYADSVKGRFTISRDNAKNTVYLQMNSLKPEDTAVYYCAAQRSVFKSFRTTYVRYDYWGQGTQVTVSS	high polyreactivity
QVQLVESGAGLDQAGGSLRLSSAASGNTFQYYAMGSYRQAAGKERELVASISYRGGRTYYADSVKGRFTISRDNAKYTVYLQMNSLKPADTAVYYCAKSKYTNVLYNYWGQGTQVTVSS	high polyreactivity
QVQLVESWGGLVQAGGSLRLSCAASGSTFSLYTMGWYRQAPGKERELVATIDSGGSTNYADSVKGRFTISRDNAKNTVYLQMNSLKPEDTAVYYCVDYYNGYTHNYNYWGQGTQVTVSS	low polyreactivity
QVQLVESGGGLVQAGGSLRLSCAASGSTFRLYAMGWYRQAPGKERELVAAISSRGGSTYYADSVKGRFTISRDNAKNTVYLQMNSLKPEDTAVYYCATDYITPSSEGDYWGQGTQVTVTS	high polyreactivity
QVQLVESGGGLVHAGGSLRLSCAASGGIFPHNVMGWYRQAPGKEREMVAAITWSGGRTYYADSVKGRFTNSRDNAKNTVYFQLNSLKPEDTAVYYCAADPFYLTKSGGWGDYWGQGTQVTVSS	low polyreactivity
QVQLVESGGGLVQAGGSLRLSCAASGSTLNYYAMGWYRQAPGKERELVATIDKSGGSTRYADSVKGRFTISRDNAKNTVYLQMNSLKPEDTAVYYCAVDSPYQHDDYWGQGTQVTVSS	low polyreactivity
QVQLVESGGGLVQAGGSLRLSCAASGFTVWLYAMGWYRQAPGKEREFVAAISTSGGSTYADSVKGRFTISRDNAKKTVYLQMNSLKPEDTAVYYCAADDLPSTGYDYWGQRTQVTVSS	low polyreactivity
QVQLVESGGGLVQAGGSLRLSCAASGSIFTVYTMGWYRQAPGKVRELVAAINSRGGTTYYADSVKGRFTISRDNAKNTLYLQMNSLKPEDTAVYYCAAKQRPKSYGPGHYYWGQGTQVTVSS	high polyreactivity
QVQLVESGGGLVQAGGTLRISCAASGSTFLFYAMGWYRQAPGKERELVAAISSSGTSTYYADSVKGRFTISRDNAKNTVYLQMNSLKPEDTACYYCARRGRSLRWKYDYWGQGTQVTVSS	low polyreactivity
QVQLVESGGGLVHAGGSLRLSCAASGSTFSYNAMGWYRQAHGKERELVAAITSSGSSTYYADSVKGRFTISRYNAKNTVYLQMNSLKPEDTAVYYCKAEVLFVAGQVQRNSGDYWGQGTQVSVSS	low polyreactivity
QVQLVESGGGLVQAGGSLRLSCAASGNIFYWNVMGWYRQAPGKERELVAVISNGGRTYYADSVKGRFTISRDNAKNTVYLQMNSLKPEDTAVYYCAAEYDRLSKRYDYWGQGTQVTVSS	high polyreactivity
QVQLVESGGGLVQAGGSLRLSCAASGYIFGRNAMGWYRQAPGKEREFVAAISYSGSSTYYADSVKGRFTISRDNAKNTVYLQMNSLKPEDTAVYYCNAVYYRSRFGTSIRYDYWGQGTQVTVSS	high polyreactivity
QVQLVESGGGLVQAGGSLRLSCAASGSIFAYYAMGWYRQAPGKERELVAVISRGGSTYYADSVKGRFTISRDNATNTVYLQMNSLKPEDTAVYYCAADDTRGREEYDYWGQGTQVTVSS	high polyreactivity
QVQLVESGGGLVQAGGSLRISCAASGLTFGKYAMGWYRQEPGKERELVAAISWSVTSTYYADSVKGRFTISRDNAKNTVYLQMNSLKPEDTAVYYCAAEIIKLAYRVAYYYWGQGTQVTVSS	high polyreactivity
QDQLVESCGALLQAGGSLRLSCAASGITIDTYFMGRYRQAPGKETELLAAISNSDGSTYYADSVKGRFTISRDNAKHTVYLPMNSLKPEDTAVYYCNAQSYYSWHLRYDYWGQGTQVTVSS	high polyreactivity
QVQLVESGGGLVQAGGSLRLSCAASGSIFNYNAMGWYRPAPGKERELVAALNSGGSTNYADSVKGRFTISRDNAKNTVYLQMNSLKPEDPAVYYCAADNYSQGVPYDYWGQGTQVTVSS	low polyreactivity
